Experimental data as given in paper doi:10.1101/2024.02.22.581614 (bioRxiv, 2024).

Target: T1, Extant nitrogenase molybdenum-iron protein alpha chain, NifD (A. vinelandii) (Azotobacter vinelandii, UniProt P07328 1-492)
T1 sequence (looked up): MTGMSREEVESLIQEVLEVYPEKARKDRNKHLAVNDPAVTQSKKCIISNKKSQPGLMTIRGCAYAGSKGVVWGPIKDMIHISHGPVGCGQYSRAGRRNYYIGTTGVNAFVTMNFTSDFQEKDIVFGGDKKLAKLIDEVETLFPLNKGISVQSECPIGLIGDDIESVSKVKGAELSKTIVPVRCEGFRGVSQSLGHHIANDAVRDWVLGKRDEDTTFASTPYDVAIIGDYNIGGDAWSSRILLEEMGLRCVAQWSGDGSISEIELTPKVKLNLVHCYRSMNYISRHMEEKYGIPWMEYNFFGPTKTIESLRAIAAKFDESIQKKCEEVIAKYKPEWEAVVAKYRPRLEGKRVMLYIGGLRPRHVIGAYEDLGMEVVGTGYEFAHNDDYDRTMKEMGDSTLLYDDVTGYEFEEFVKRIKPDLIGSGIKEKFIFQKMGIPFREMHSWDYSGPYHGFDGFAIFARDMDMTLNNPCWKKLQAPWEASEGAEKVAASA
Assay: affinity co-purification

B1: Extant nitrogenase molybdenum-iron protein beta chain, NifK (A. vinelandii) (enzyme, Azotobacter vinelandii, UniProt P07329 1-523, looked up)
chain: MSQQVDKIKASYPLFLDQDYKDMLAKKRDGFEEKYPQDKIDEVFQWTTTKEYQELNFQREALTVNPAKACQPLGAVLCALGFEKTMPYVHGSQGCVAYFRSYFNRHFREPVSCVSDSMTEDAAVFGGQQNMKDGLQNCKATYKPDMIAVSTTCMAEVIGDDLNAFINNSKKEGFIPDEFPVPFAHTPSFVGSHVTGWDNMFEGIARYFTLKSMDDKVVGSNKKINIVPGFETYLGNFRVIKRMLSEMGVGYSLLSDPEEVLDTPADGQFRMYAGGTTQEEMKDAPNALNTVLLQPWHLEKTKKFVEGTWKHEVPKLNIPMGLDWTDEFLMKVSEISGQPIPASLTKERGRLVDMMTDSHTWLHGKRFALWGDPDFVMGLVKFLLELGCEPVHILCHNGNKRWKKAVDAILAASPYGKNATVYIGKDLWHLRSLVFTDKPDFMIGNSYGKFIQRDTLHKGKEFEVPLIRIGFPIFDRHHLHRSTTLGYEGAMQILTTLVNSILERLDEETRGMQATDYNHDLVR
- stoichiometry N: 0.93 D:K
